These results are taken from article PMC6205457.

One test addresses MCL1 (UniProt P97287). In words: SPR. In general terms: In SPR one partner is held on a chip, and binding of the other changes the refractive index at the surface.
Test [1] addresses biotinylated mouse MCL1 (amino acids 152-308) (mouse) (UniProt P97287). In words: SPR.

Substance “rPUMA (redesigned PUMA peptide: A139tBu, Q140Y, A144Cha, A145G, Y152Bzt)” registered a Kd with MCL1 of less than 0.16 nM.
In the test with MCL1, “PUMA 27-aa wild-type peptide (pseudo wild-type, M144A)” came in with a Kd of 4 nM.
Consider PUMA27 I137tBu (peptide), for which, in test [1], the Kd turned out to be 7 nM. This counts as single-digit nanomolar.

As usually defined, the Kd is a measure of binding affinity in units of concentration. Read a high Kd as a looser complex.
